The values below come from patent US20210395716.

This data set concerns the target β-amyloid peptide (1-42), P05067.

Sequence of β-amyloid peptide (1-42), P05067 (P05067 whole entry, looked up, tested part not stated): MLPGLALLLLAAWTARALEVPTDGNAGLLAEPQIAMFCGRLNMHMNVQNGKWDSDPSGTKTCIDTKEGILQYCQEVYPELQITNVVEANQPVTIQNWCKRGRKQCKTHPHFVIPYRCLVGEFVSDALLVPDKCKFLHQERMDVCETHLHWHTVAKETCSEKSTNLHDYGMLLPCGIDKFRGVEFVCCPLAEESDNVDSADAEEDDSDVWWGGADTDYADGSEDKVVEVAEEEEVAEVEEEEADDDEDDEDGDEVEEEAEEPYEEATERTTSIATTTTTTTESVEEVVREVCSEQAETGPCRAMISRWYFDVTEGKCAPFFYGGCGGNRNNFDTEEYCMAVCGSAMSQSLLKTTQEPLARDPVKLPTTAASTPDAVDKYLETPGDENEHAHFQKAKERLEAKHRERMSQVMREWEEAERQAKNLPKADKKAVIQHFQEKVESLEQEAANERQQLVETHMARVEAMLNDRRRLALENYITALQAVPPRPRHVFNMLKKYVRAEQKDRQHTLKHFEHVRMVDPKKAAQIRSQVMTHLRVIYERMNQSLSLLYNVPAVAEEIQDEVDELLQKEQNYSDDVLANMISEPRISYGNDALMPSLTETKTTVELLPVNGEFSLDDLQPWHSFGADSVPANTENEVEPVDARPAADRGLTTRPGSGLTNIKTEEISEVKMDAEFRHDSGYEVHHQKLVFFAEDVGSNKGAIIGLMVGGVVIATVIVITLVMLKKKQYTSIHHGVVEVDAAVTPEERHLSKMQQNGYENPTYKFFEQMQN

B1: Fab-neprilysin (humanized 3E10 Fab fused through a Gly-Ser linker to the human neprilysin ectodomain) (protein)
chain 1: EVQLQESGGGVVQPGGSLRLSCAASGFTFSNYGMHWIRQAPGKGLEWVSYISSGSSTIYYADSVKGRFTISRDNSKNTLYLQMNSLRSEDTAVYYCARRGLLLDYWGQGTLVTVSSASTKGPSVFPLAPSSKSTSGGTAALGCLVKDYFPEPVTVSWNSGALTSGVHTFPAVLQSSGLYSLSSVVTVPSSSLGTQTYICNVNHKPSNTKVDKKVEPKSCDKTHTGGSGGGSGGGSGGYDDGICKSSDCIKSAARLIQNMDATTEPCTDFFKYACGGWLKRNVIPETSSRYGNFDILRDELEVVLKDVLQEPKTEDIVAVQKAKALYRSCINESAIDSRGGEPLLKLLPDIYGWPVATENWEQKYGASWTAEKAIAQLNSKYGKKVLINLFVGTDDKNSVNHVIHIDQPRLGLPSRDYYECTGIYKEACTAYVDFMISVARLIRQEERLPIDENQLALEMNKVMELEKEIANATAKPEDRNDPMLLYNKMTLAQIQNNFSLEINGKPFSWLNFTNEIMSTVNISITNEEDVVVYAPEYLTKLKPILTKYSARDLQNLMSWRFIMDLVSSLSRTYKESRNAFRKALYGTTSETATWRRCANYVNGNMENAVGRLYVEAAFAGESKHVVEDLIAQIREVFIQTLDDLTWMDAETKKRAEEKALAIKERIGYPDDIVSNDNKLNNEYLELNYKEDEYFENIIQNLKFSQSKQLKKLREKVDKDEWISGAAVVNAFYSSGRNQIVFPAGILQPPFFSAQQSNSLNYGGIGMVIGHEITHGFDDNGRNFNKDGDLVDWWTQQSASNFKEQSQCMVYQYGNFSWDLAGGQHLNGINTLGENIADNGGLGQAYRAYQNYIKKNGEEKLLPGLDLNHKQLFFLNFAQVWCGTYRPEYAVNSIKTDVHSPGNFRIIGTLQNSAEFSEAFHCRKNSYMNPEKKCRVW
chain 2: DIQMTQSPSSLSASVGDRVTISCRASKSVSTSSYSYMHWYQQKPEKAPKLLIKYASYLQSGVPSRFSGSGSGTDFTLTISSLQPEDVATYYCQHSREFPWTFGAGTKLELKRTVAAPSVFIFPPSDEQLKSGTASVVCLLNNFYPREAKVQWKVDNALQSGNSQESVTEQDSKDSTYSLSSTLTLSKADYEKHKVYACEVTHQGLSSPVTKSFNRGEC
The protein B1 gave an Abeta HPLC, per hr. (sample FabNEP 2.5) of 0.5 per hr; an Abeta HPLC, per hr. (sample FabNEP 3.6, pH 3.6 elution pool) of 0.61 per hr; an Abeta HPLC, per hr. (sample FabNEP 4.0, pH 4.0 elution pool) of 0.66 per hr; an Abeta HPLC, rate (sample FabNEP 2.5) (million sq unt/min) of 0.0104. The protein also showed an Abeta HPLC, rate (sample FabNEP 3.6, pH 3.6 elution pool) (million sq unt/min) of 0.0137; an Abeta HPLC, rate (sample FabNEP 4.0, pH 4.0 elution pool) (million sq unt/min) of 0.0175; an Abeta HPLC, units/µL (sample FabNEP 2.5) of 0.001 units/µL; an Abeta HPLC, units/µL (sample FabNEP 3.6, pH 3.6 elution pool) of 0.0547 units/µL. Moreover, the Abeta HPLC, units/µL (sample FabNEP 4.0, pH 4.0 elution pool) worked out at 0.035 units/µL; the Abeta HPLC, units/µg (sample FabNEP 2.5) amounted to 0.008 units/µg; the Abeta HPLC, units/µg (sample FabNEP 3.6, pH 3.6 elution pool) was determined as 0.01 units/µg; the Abeta HPLC, units/µg (sample FabNEP 4.0, pH 4.0 elution pool) amounted to 0.011 units/µg. Moreover, the “degradation of β-amyloid (1-42)” value was “The Fab portion does not inhibit degradation of β-amyloid (1-42)” and the “degradation of β-amyloid peptide (1-42), HPLC” value is listed as “Fab-NEP degrades β-amyloid peptide (1-42). The Fab conjugate does not appear to inhibit neprilysin activity, as compared to yeast NEP (yNEP)”.
